Measured values taken from paper PMC9122904, “Insights into the client protein release mechanism of the ATP-independent chaperone Spy” (Nature Communications, 2022).

How the values were obtained:
Experiment in all cases: BLI; Octet RED96; client biotinylated and loaded on streptavidin sensors; Spy or Spy variant in solution at 0.25, 0.5, 1, 1.5 and 2 μM; 40 mM HEPES, 150 mM NaCl, pH 7.5; Kd calculated as koff/kon
Details in all cases: both partners purified
Spy_(R43D) = molecular target: T1, Spy_(R43D) (UniProt P77754 24-161, R43D)
T1 construct: source: E. coli BL21 (DE3), purified (Ni-NTA, cation exchange, SEC); not shown: His6, N-terminal, cleaved; SUMO, N-terminal, cleaved
T1 sequence (looked up): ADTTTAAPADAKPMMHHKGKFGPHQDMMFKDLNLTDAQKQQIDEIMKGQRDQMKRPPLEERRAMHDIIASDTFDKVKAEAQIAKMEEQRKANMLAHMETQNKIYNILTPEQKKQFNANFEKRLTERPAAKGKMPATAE
How it was run: (§1)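 Association was recorded with an Octet RED96 as streptavidin sensors carrying client proteins, biotinylated with EZ-link NHS-biotin at a 1:1 molar ratio, sat in 40 mM HEPES, 150 mM NaCl, pH 7.5 with 0.25 to 2 μM of the analyte protein (0.25, 0.5, 1, 1.5 and 2 μM). Dissociation followed after transfer to analyte-free buffer. Both wavelength-shift phases were fitted in SigmaPlot 12.0 to obtain koff and the observed association rate, whose dependence on analyte concentration yielded kon, with Kd defined as koff divided by kon.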

Spy D26K R43D = molecular target: T2, Spy D26K R43D (UniProt P77754 24-161, D26K | R43D)
T2 construct: source: E. coli BL21 (DE3), purified (Ni-NTA, cation exchange, SEC); not shown: His6, N-terminal, cleaved; SUMO, N-terminal, cleaved
T2 sequence (looked up): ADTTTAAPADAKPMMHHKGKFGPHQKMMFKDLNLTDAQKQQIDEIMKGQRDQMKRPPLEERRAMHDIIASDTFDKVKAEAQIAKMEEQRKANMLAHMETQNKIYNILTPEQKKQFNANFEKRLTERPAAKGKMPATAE
How it was run: as §1

Spy_(R50D) = molecular target: T3, Spy_(R50D) (UniProt P77754 24-161, R50D)
T3 construct: source: E. coli BL21 (DE3), purified (Ni-NTA, cation exchange, SEC); not shown: His6, N-terminal, cleaved; SUMO, N-terminal, cleaved
T3 sequence (looked up): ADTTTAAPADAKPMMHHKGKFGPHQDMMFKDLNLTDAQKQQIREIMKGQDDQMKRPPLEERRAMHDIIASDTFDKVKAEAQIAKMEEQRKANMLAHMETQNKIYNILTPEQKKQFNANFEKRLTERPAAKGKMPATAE
How it was run: as §1

Spy D26K R50D = molecular target: T4, Spy D26K R50D (UniProt P77754 24-161, D26K | R50D)
T4 construct: source: E. coli BL21 (DE3), purified (Ni-NTA, cation exchange, SEC); not shown: His6, N-terminal, cleaved; SUMO, N-terminal, cleaved
T4 sequence (looked up): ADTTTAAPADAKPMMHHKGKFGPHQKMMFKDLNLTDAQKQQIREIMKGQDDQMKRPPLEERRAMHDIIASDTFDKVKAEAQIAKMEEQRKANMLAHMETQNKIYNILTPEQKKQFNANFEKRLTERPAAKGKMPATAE
How it was run: as §1

Spy_(D26K R61D R62D) = molecular target: T5, Spy_(D26K R61D R62D) (UniProt P77754 24-161, D26K | R61D | R62D)
T5 construct: source: E. coli BL21 (DE3), purified (Ni-NTA, cation exchange, SEC); not shown: His6, N-terminal, cleaved; SUMO, N-terminal, cleaved
T5 sequence (looked up): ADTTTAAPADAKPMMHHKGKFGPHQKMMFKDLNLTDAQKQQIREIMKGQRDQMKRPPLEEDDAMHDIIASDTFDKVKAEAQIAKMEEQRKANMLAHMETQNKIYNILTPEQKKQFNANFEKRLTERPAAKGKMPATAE
How it was run: as §1

Spy D26K K75D = molecular target: T6, Spy D26K K75D (UniProt P77754 24-161, D26K | K75D)
T6 construct: source: E. coli BL21 (DE3), purified (Ni-NTA, cation exchange, SEC); not shown: His6, N-terminal, cleaved; SUMO, N-terminal, cleaved
T6 sequence (looked up): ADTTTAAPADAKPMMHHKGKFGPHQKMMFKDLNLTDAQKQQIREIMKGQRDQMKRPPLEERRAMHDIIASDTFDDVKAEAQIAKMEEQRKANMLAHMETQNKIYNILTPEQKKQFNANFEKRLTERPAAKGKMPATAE
How it was run: as §1

Spy_(R89D) = molecular target: T7, Spy_(R89D) (UniProt P77754 24-161, R89D)
T7 construct: source: E. coli BL21 (DE3), purified (Ni-NTA, cation exchange, SEC); not shown: His6, N-terminal, cleaved; SUMO, N-terminal, cleaved
T7 sequence (looked up): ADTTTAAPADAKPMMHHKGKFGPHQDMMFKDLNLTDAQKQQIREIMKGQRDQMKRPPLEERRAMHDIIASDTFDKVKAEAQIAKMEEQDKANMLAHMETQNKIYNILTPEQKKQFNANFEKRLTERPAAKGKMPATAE
How it was run: as §1

Spy_(R89D D26K) = molecular target: T8, Spy_(R89D D26K) (UniProt P77754 24-161, D26K | R89D)
T8 construct: also called D26K R89D; source: E. coli BL21 (DE3), purified (Ni-NTA, cation exchange, SEC); not shown: His6, N-terminal, cleaved; SUMO, N-terminal, cleaved
T8 sequence (looked up): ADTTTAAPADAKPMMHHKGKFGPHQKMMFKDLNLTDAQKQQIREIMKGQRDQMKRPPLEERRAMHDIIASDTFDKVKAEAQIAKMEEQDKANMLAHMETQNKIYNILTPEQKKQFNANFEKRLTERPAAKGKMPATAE
How it was run: as §1

koff (Spy_(R43D)): 0.533 s⁻¹
koff (Spy D26K R43D): 0.202 s⁻¹
koff (Spy_(R50D)): 0.543 s⁻¹
koff (Spy D26K R50D): 0.147 s⁻¹
koff (Spy_(D26K R61D R62D)): 0.475 s⁻¹
koff (Spy D26K K75D): 0.0595 s⁻¹
koff (Spy_(R89D)): 0.105 s⁻¹
koff (Spy_(R89D D26K)): 0.2 s⁻¹
B1: Im7 H40W L53A I54A (natural protein)
chain: MELKNSISDYTEAEFVQLLKEIEKENVAATDDVLDVLLEWFVKITEHPDGTDAAYYPSDNRDDSPEGIVKEIKEWRAANGKPGFKQG
modifications: biotin (EZ-link NHS-biotin, 1:1 molar ratio of biotin to protein)
notes: Im7 (colicin E7 immunity protein) with H40W L53A I54A; Spy was made with an N-terminal His6-SUMO tag that was cleaved; also called Im7AAW; partially folded client; source: purified by a similar procedure to Spy
